From paper PMC5082570, “Structure and biochemical properties of recombinant human dimethylglycine dehydrogenase and comparison to the disease‐related H109R variant” (The Febs Journal, 2016)

Experiments:
[1] = molecular target: T1, human dimethylglycine dehydrogenase (hDMGDH) (Homo sapiens, UniProt Q9UI17); assay: ferrocenium activity assay against THF concentration; format: biochemical; conditions: 1 mM DMG, 0.2 mM ferrocene, 0-75 μM THF, 50 mM HEPES/NaOH, 150 mM NaCl, 0.1 mM EDTA, pH 7.8, 25 °C; physiological methyl acceptor
T1 construct: gene DMGDH; covalent FAD at His91
T1 sequence (Q9UI17 29-866): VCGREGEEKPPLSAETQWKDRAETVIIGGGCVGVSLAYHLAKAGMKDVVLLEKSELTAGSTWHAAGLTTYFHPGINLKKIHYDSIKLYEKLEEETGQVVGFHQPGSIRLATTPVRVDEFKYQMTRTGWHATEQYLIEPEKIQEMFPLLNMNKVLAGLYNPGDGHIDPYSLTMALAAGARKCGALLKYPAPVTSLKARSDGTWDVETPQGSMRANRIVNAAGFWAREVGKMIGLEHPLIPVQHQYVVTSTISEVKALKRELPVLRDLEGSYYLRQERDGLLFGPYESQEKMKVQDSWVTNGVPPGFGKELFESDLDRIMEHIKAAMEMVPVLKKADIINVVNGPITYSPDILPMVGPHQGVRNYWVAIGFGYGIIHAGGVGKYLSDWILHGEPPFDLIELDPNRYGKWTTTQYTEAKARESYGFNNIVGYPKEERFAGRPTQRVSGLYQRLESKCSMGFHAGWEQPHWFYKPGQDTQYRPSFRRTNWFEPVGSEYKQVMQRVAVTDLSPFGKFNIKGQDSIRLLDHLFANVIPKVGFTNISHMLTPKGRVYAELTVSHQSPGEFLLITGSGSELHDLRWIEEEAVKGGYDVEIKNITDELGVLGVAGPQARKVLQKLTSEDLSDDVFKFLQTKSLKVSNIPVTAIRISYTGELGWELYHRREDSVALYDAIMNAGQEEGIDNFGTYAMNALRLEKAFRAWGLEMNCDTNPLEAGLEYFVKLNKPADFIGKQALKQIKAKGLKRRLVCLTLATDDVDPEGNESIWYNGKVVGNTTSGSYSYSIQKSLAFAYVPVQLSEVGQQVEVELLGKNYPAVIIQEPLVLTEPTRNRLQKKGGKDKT

[2] = molecular target: T1, human dimethylglycine dehydrogenase (hDMGDH); assay: X-ray crystal structure, […] Å; format: binding; conditions: covalent; 8alpha-methyl group linked to N3 of His91
[3] = molecular target: T1, human dimethylglycine dehydrogenase (hDMGDH); assay: stopped flow, FAD reduction at […] nm, hyperbolic fit of kobs; format: biochemical; conditions: anaerobic, 50 mM HEPES/NaOH, 150 mM NaCl, pH 7.8, 25 °C; pre-steady-state; read-out: K D,DMG
purified protein = substrate: CN(C)CC(=O)O; assay: purified protein; format: biochemical, Homo sapiens; conditions: 0.2 mM ferrocenium hexafluorophosphate as electron acceptor, 50 mM HEPES/NaOH, 150 mM NaCl, 0.1 mM EDTA, pH 7.8, 25 °C
[4] = natural disease variant, partly apoprotein

Question: With `Nc1nc2c(c(=O)[nH]1)N[C@@H](CNc1ccc(C(=O)N[C@@H](CCC(=O)O)C(=O)O)cc1)CN2` [THF, tetrahydrofolate] as the molecule, how does the activity [1] read?
Answer: the activity of WT decreases as a function of the THF concentration

Question: How did the “X-ray crystal structure, 3.1 Å” value [2] turn out when `Cc1cc2nc3c(=O)[nH]c(=O)nc-3n(C[C@H](O)[C@H](O)[C@H](O)COP(=O)(O)OP(=O)(O)OC[C@H]3O[C@@H](n4cnc5c(N)ncnc54)[C@H](O)[C@@H]3O)c2cc1C` [FAD, flavin adenine dinucleotide] was run?
Answer: The FAD cofactor is covalently attached to the protein through a linkage between N3

Question: How did the Kd [3] turn out when `CN(C)CC(=O)O` [DMG, dimethylglycine] was run?
Answer: 4.9 ± 0.3 mM

B1: human dimethylglycine dehydrogenase (hDMGDH) (Homo sapiens) (protein)
chain: VCGREGEEKPPLSAETQWKDRAETVIIGGGCVGVSLAYHLAKAGMKDVVLLEKSELTAGSTWHAAGLTTYFHPGINLKKIHYDSIKLYEKLEEETGQVVGFHQPGSIRLATTPVRVDEFKYQMTRTGWHATEQYLIEPEKIQEMFPLLNMNKVLAGLYNPGDGHIDPYSLTMALAAGARKCGALLKYPAPVTSLKARSDGTWDVETPQGSMRANRIVNAAGFWAREVGKMIGLEHPLIPVQHQYVVTSTISEVKALKRELPVLRDLEGSYYLRQERDGLLFGPYESQEKMKVQDSWVTNGVPPGFGKELFESDLDRIMEHIKAAMEMVPVLKKADIINVVNGPITYSPDILPMVGPHQGVRNYWVAIGFGYGIIHAGGVGKYLSDWILHGEPPFDLIELDPNRYGKWTTTQYTEAKARESYGFNNIVGYPKEERFAGRPTQRVSGLYQRLESKCSMGFHAGWEQPHWFYKPGQDTQYRPSFRRTNWFEPVGSEYKQVMQRVAVTDLSPFGKFNIKGQDSIRLLDHLFANVIPKVGFTNISHMLTPKGRVYAELTVSHQSPGEFLLITGSGSELHDLRWIEEEAVKGGYDVEIKNITDELGVLGVAGPQARKVLQKLTSEDLSDDVFKFLQTKSLKVSNIPVTAIRISYTGELGWELYHRREDSVALYDAIMNAGQEEGIDNFGTYAMNALRLEKAFRAWGLEMNCDTNPLEAGLEYFVKLNKPADFIGKQALKQIKAKGLKRRLVCLTLATDDVDPEGNESIWYNGKVVGNTTSGSYSYSIQKSLAFAYVPVQLSEVGQQVEVELLGKNYPAVIIQEPLVLTEPTRNRLQKKGGKDKT
notes: covalent FAD at His91
Question: B1 was tested. Which Km (purified protein) did it give?
Answer: 1.4 ± 0.1 mM

Question: What about the Vmax (purified protein) of the same molecule?
Answer: 22.1 µM/min

Question: What about the kcat (purified protein) of the same molecule?
Answer: 3.55 ± 0.0667 s⁻¹

Question: What about the kcat/Km (purified protein) of the same molecule?
Answer: 2280 ± 267 M⁻¹ s⁻¹

B2: human dimethylglycine dehydrogenase (hDMGDH) (Homo sapiens; H109R) (protein)
chain: VCGREGEEKPPLSAETQWKDRAETVIIGGGCVGVSLAYHLAKAGMKDVVLLEKSELTAGSTWHAAGLTTYFHPGINLKKIRYDSIKLYEKLEEETGQVVGFHQPGSIRLATTPVRVDEFKYQMTRTGWHATEQYLIEPEKIQEMFPLLNMNKVLAGLYNPGDGHIDPYSLTMALAAGARKCGALLKYPAPVTSLKARSDGTWDVETPQGSMRANRIVNAAGFWAREVGKMIGLEHPLIPVQHQYVVTSTISEVKALKRELPVLRDLEGSYYLRQERDGLLFGPYESQEKMKVQDSWVTNGVPPGFGKELFESDLDRIMEHIKAAMEMVPVLKKADIINVVNGPITYSPDILPMVGPHQGVRNYWVAIGFGYGIIHAGGVGKYLSDWILHGEPPFDLIELDPNRYGKWTTTQYTEAKARESYGFNNIVGYPKEERFAGRPTQRVSGLYQRLESKCSMGFHAGWEQPHWFYKPGQDTQYRPSFRRTNWFEPVGSEYKQVMQRVAVTDLSPFGKFNIKGQDSIRLLDHLFANVIPKVGFTNISHMLTPKGRVYAELTVSHQSPGEFLLITGSGSELHDLRWIEEEAVKGGYDVEIKNITDELGVLGVAGPQARKVLQKLTSEDLSDDVFKFLQTKSLKVSNIPVTAIRISYTGELGWELYHRREDSVALYDAIMNAGQEEGIDNFGTYAMNALRLEKAFRAWGLEMNCDTNPLEAGLEYFVKLNKPADFIGKQALKQIKAKGLKRRLVCLTLATDDVDPEGNESIWYNGKVVGNTTSGSYSYSIQKSLAFAYVPVQLSEVGQQVEVELLGKNYPAVIIQEPLVLTEPTRNRLQKKGGKDKT
notes: covalent FAD at His91
Question: What does the source list for B2?
Answer: Km (purified protein; [4]): 32.2 ± 5.6 mM; Vmax (purified protein; [4]): 44.1 µM/min; kcat (purified protein; [4]): 9.07 ± 0.667 s⁻¹; kcat/Km (purified protein; [4]): 183 ± 16.7 M⁻¹ s⁻¹
